This assay deals with T1, GST (UniProt P08515 1-218 = GST).
T1 construct: Negative control of the pull-down; also called GST alone
Kind of assay: GST pull-down on GSH-sepharose, immunoblot.

T1 sequence (P08515 whole entry): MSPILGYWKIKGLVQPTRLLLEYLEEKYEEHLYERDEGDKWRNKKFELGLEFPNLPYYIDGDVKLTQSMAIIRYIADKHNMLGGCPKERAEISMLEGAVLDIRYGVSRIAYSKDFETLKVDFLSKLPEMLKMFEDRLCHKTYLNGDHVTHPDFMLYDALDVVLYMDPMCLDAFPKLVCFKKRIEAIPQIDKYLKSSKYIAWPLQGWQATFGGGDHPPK

B1: His6-T7-tagged MP1 (other, UniProt O88653 1-124, looked up)
chain: MADDLKRFLYKKLPSVEGLHAIVVSDRDGVPVIKVANDSAPEHALRPGFLSTFALATDQGSKLGLSKNKSIICYYNTYQVVQFNRLPLVVSFIASSSANTGLIVSLEKELAPLFEELIKVVEVS
notes: Recombinant, in bacterial lysate; also called His6-T7-MP1; not shown: N-terminal His6-T7 tag from vector pET28 (Novagen)
B1: the binding result is “no binding”.

(Values after patent EP1233271A1 (Huber, Lukas, dated 2002).)
